Experimental data taken from the DeepSol protein solubility set.

Assay: soluble on expression in E. coli; label from the status in PepcDB or PDB records

Sequence	soluble on expression in E. coli
SLTAAENIQEQLYPAPIKTVEEGSPAARAGVRPGDVLLRVNGQPVTDVLAYRHQLERGVVTLEVARPHEAPRVMTGVAGTAQDHHRLMLPQPPSLDETLTFTVEWEDPGLDFEEVLFDGIKKCANKCDFCYVHQMPRGFRKSLYIMDDDYRLSFLYGSFVTLTNLTEGDINRILDENLSPLYVSVHTANQDLRQDMMKWWKLKVKDPQAVQIREMIERLESIDLYTQIVLVPERNDRENLDETVEYLSSRPNVISAAVVPIGLTAHRTNLPDVRTFTPEEAQDTLRRLNVWRRKFLAERGTRFIFPSDELYLLAGEPLPTEEEYEGFPMLENGVGMIRDFLTEALPPLPAALPEPRKVILGTGLLFADSLARAIEPLRQIEGLDIEVRAIENKTFGKVTTVAGLLTGRCFRHAVQPGEADLLIVPPTTLRYGTELMIDDTSLGELRRELKMDVRAGGATLGELARVVLEGAQSSGHQFGMSAHAVKDSGRDDVAPSASRAQGGAAPEESLEEDVAESGMHGRGQA	soluble
MGHHHHHHSHMAKQPTVLWAQRESLVYLTIEVDEAKIEELKGEGNKLHFQGSSKTDKYEATLEFFDEIDPASVKHTGSSTRVVEITVQKKTPAWWPRLLQNKGKVHWLKVDFGKWKDEDEDDEAEDAGAGIGGGMANGFDLNQYMSQMGGAGGADFGGLEDDEEDDDMPDLEDNEEEEGKNGTRA	soluble
MGSDKIHHHHHHMKKIIYFITLLFLVGCVDLSENMYNDLGKDNYYQTEQEYDAAFMNQYAFLRTMYAWNVFYLQEITTDEACLPQKGRDGYDGGIYQRMHWHTWTDQDVIINGAWQELFKAVGFCNQVLNDLNNSRSDILPENKKKLYIAESRALRAFFYSMLVDMFGNVPIVEKVSELNPPTKTRTEVFNYVEKEIAEVKDQLLRSTDTGSYGRFTQEAALALLSRLYLNAEVYTGTSRLDDCISVSQTLLQKGYQLESTWDAPFAWNNENSKENIWVIPNDEIVANEMSVLFYRNIHWSQRSQWDWKNPNGGWNGVCTVREFIETYDITHDRRCKYDPQNGMYGQFMWGPQFDLSGNPILGTNEYAGQQLDFTLDLPDMVNNKENAGARNIKYKVKVGAQGMENDFALFRIAEINFNLAEATLRKSNEVDSKALEGINKIRTRAGVSTYATGELTLDELYREKGREMCYETLRRTDMIRFGRFIQPMWDKNYTDKETINLFPIPLQATKLNPELKQNPGYTK	not soluble
MKKEIKFSLVYRDMWQSSGKYQPRADQLVRIAPLIIEMGCFSRVETNGGAFEQVNLLYGENPNKAVRAFTKPFHEASIQTHMLDRGLNGLRMYPVPADVRRLMYKVKHAQGVDITRIFCGLNEVRNIIPSIHYALEAGMIPQATLCITFSPVHTVEYYTAIAERLIEAGAPEICLKDMAGVGRPEMLGRLTKAIKERHPEIIIQYHGHSGPGLSMASILEVCENGADIIDVAMEPISWGKVHPDVISVQAMLKDAGFQVPEINMKAYMKARAMTQEFIDDFLGYFMDPTNKHMSSLLLKCGLPGGMMGSMMADLKGVHSGINLILRGKNEPELSIDDLLVMLFDEVEYVWPKLGYPPLVTPFSQYVKNVALMNVMSLIKGEERWTMIDNHTWDMILGKSGRLPGALAPEIIALAKEKGYEFTDEDPQKNYPDQLDEYRKEMTENGWDFGQDDEELFELAMHDRQYRDYKSGIAKKRFEDDLQRAKDAALAKQGFSEEEVKRMKRAKAEPVTAMEKGQIIWEIDVESPSMPPEVGHKYDPDDVFCYIATPWHTYDKVLANFSGRVIEVCAKQGALVDKGEPLAYIERCEEPA	not soluble
NDLVSFTLRGNASWNRDKIIENDEAPKPYPWMEKRGTNVFSQWGLIADGLFTSEEEIEKHATQFGQVYIGDIKYRDLNNDKKIDSNDICRIGQGTIPKYNYGFGFDVQIGYFSVSALFQGAADVTTCLSGNSIIPFSSQAGIDNLFDNIEDRWSPDDPTNEDVFYPRLHYGNSNNSNNYRASTWWLRNMDYLRLKQFNIAYNLPENTLKSVGVKGARIYLMGTNLLTFSKFKLWDPEVYSSNGAAYPNVMSCSLGVNFSF	not soluble
DVQLVESGGGSVQAGGSLRLSCAVSGYKDRNYCMGWFRRAPGKEREGVAVIDSSGRTAYADSVKGRFTISRDVALDTAYLQMNSLKPEDTAMYYCAAGWSSLGSCGTNRNRYNYWGQGTQVTVSSRGRHHHHHH	soluble
GRGSEHLTIGFKVENAHDRILKTIKTHKLKNYIKESVNFLNSGLTKTNYLGSSNDNIELVDFQNIMFYGDAEVGDNQQPFTFILDTGSANLWVPSVKCTTAGCLTKHLYDSSKSRTYEKDGTKVEMNYVSGTVSGFFSKDLVTVGNLSLPYKFIEVIDTNGFEPTYTASTFDGILGLGWKDLSIGSVDPIVVELKNQNKIENALFTFYLPVHDKHTGFLTIGGIEERFYEGPLTYEKLNHDLYWQITLDAHVGNIMLEKANCIVDSGTSAITVPTDFLNKMLQNLDVIKVPFLPFYVTLCNNSKLPTFEFTSENGKYTLEPEYYLQHIEDVGPGLCMLNIIGLDFPVPTFILGDPFMRKYFTVFDYDNHSVGIALAKKNL	soluble
MKVKTQFVCNQCAAIFKQWAGQCTQCGAWNSIVEEGIMPENKTLRSGQWANQRSVITAVEDVVMDKIVRMDCGISELNRVLGGGLVYGSVVLIGGDPGIGKSTLLLQTLANLSMQETVLYVTGEESLQQVAMRAQRLGLPLAGLRLLAETQVESIIAQAQKEKPRIIVVDSVQTIFTEAISSAPGGVSQVRESAAQLVRYAKMTNTAIFLVGHVTKEGTLAGPRVLEHMVDSVLYFEGQNDSRFRVIRAIKNRFGAVNELGVFAMTDKGLKEVANPSAIFLSRQPEPTPGSAVMVTWEGSRPMLVEVQALVDEAHGQQAKRVTAGLEHNRLAILLAVLHRHGGIATYDQDVFINVVGGVKVTETASDLALLAAVISSLRNRIFDSETIIFGEVGLAGEIRPVQSGQERIKEAIKHGFKRAIVPFANAPKQQIDSMTVEPVKHLRDVLEKM	not soluble
MDLVKVDDDVVREMEIRRQQHSKKYDRKFEELVKSMSEAHVEPEKMKIPFSRKPTEQETNNLREEWEKEYAALCTSGRTLARPNPNSSIFSKILAQGSPSSAKAGTTRSTPRTSKPPSADENIIFGQKLPETPAPKLLCPPRASPGSSRRLSIFVENLPENHAEIVRGTIFAGREAKIMQNDPENVPSTSTYGEPIRPYLLFARYISLEKGLLDDKNRYKSATDPRFREFLKENIKYKVKQSIKHRTSSEACAQILNYFKTLLQKQEVQVLGGYAPVLQLKTNKDIEYASLCIVHNYVILAERDESLIPLISSHITRLSVFYGYIEQVFCIILLSRSALLRQHPEECMVKFLATSMNPSSPDAIKKWSRQKAHIILFCSVFTKNAYCFSKGFKLKLTDEILWKYVDASTAHILEIPRGSFILWQLITTCKPRLQVDKERWIQLLLNIKFKIIPELDLDSFDGDEAMLMQLKQTIDELLHP	not soluble
MSLGFFNKLRQLAEDGTKMAQDGYARFNNAAFADATMAACALIGAADGQIDSQERSRTAQFITSSDKLRTFDVSKLREKYERYCDVISRDFDFGKIELMQVIGKVRKPEEARAVVQLAVVIANADGDFDAREQAVMREVIHALGLSPAEFGEGGSHHHHHH	soluble
MGSDKIHHHHHHMQVLVVDYTAKDAAEKFVQSLHETGFAVLVNHPIKQSLVESIYKNWQEFFLSEEKHAFAFDPVKQDGYFSSEISETAKGHSKKDIKEYFHVYPWGRIPAQLNDEIFEYYRLASELAAELLDWVEEYSPADIADKYSETLSNMIKETPNTLLRILHYPPLTGNEEAGAVRAASHEDINLLTILPAANEPGLQVQRQNGEWIDVPSDFGNLIINIGDMLQETSAGYFPSTSHRVINPTGKGSDKSRISLPLFLHPRSEVVLSDKHTQASYLLERLRELGVKV	not soluble
MTYFIDVPTMSDLVHDIGVAPFIGELAAALRDDFKRWQAFDKSARVASHSEVGVIELMPVADKSRYAFKYVNGHPANTARNLHTVMAFGVLADVDSGYPVLLSELTIATALRTAATSLMAAQALARPNARKMALIGNGAQSEFQALAFHKHLGIEEIVAYDTDPLATAKLIANLKEYSGLTIRRASSVAEAVKGVDIITTVTADKAYATIITPDMLEPGMHLNAVGGDCPGKTELHADVLRNARVFVEYEPQTRIEGEIQQLPADFPVVDLWRVLRGETEGRQSDSQVTVFDSVGFALEDYTVLRYVLQQAEKRGMGTKIDLVPWVEDDPKDLFSHTRGRAGKRRIRRVA	soluble
MGSDKIHHHHHHMKMIIGRKIGMTRVFVGNDSVPVTVIKAGPCVVVQKKTVEKDGYNAVQLGFEKAKKVNKPLAGHFKKFGVEPMKILREFRVENPDEYEPGQVIKVDVFEKGEYVDVTGWTKGRGFAGAMKRWGFSGGPKSHGSKFHRELGSVGQHTEPAKIWKGKKMPGRYGNERVTVRNLQVVDIDPENDLLVVKGGVPGARGGLVLIRSAKAPKK	not soluble
MIGKCTHVVDCRETMGMGEGGGIAQRGTFAQCGSEVLAVAMSPGRRHITKPVCEITFALREANIMTSTIVLNAGAGVPQDAPSAGAGSLFGLTPAEVEQMKRHKLLVVHLGGVKNHITYKARLILRNVDRPCIIICEYPVDFEDFAKIGVRTRAVMPDEPKTKGTIVDIVSGVIRGETCPQEKLDEIIRKVKLALGGALEHHHHHH	not soluble
MGSDKIHHHHHHKVSEAEAAKLGTSLTPMGGEMAASADGSIPAWNGGITAAPAGYKKGDHHPDPYSADKVEYTVTKANLEQYKSLLTPGQIKLFELYPDTFKMNVYKTQRSASAPQWVYDATKANASRAELVQGGNGVVGAAVGIPFPIPQNGLEAIWNHILRFRGVDIETQRNQAAPAKGGGYTLVELSEQLRFEYSQPDMTPEKLKENNTLALFKQVVTQPARLAGTALLVKETLDQEALPRQAWTYNTGQRRVRKAPNVAFDTPGTVSDGLRTTDDYDMFNGSPSRYNWELVGKKEILIPYNDYKLHSDKVKYDDILTPGHINPDLVRWEKHRVWEVKATLKDGMRHIYKTRVFFLDEDSWQVSATDMYDNRDELYRVAFAHGLNYYEVPAHWSTLEVFHDLQSRRYLAIGLDNEGSMYDFDAKLSASDFTPDALRREGVR	not soluble
AGYPPASPSNLSCLMHLTTNSLVCQWEPGPETHLPTSFILKSFRSRADCQYQGDTIPDCVAKKRQNNCSIPRKNLLLYQYMAIWVQAENMLGSSESPKLCLDPMDVVKLEPPMLQALDIGPDVVSHQPGCLWLSWKPWKPSEYMEQECELRYQPQLKGANWTLVFHLPSSKDQFELCGLHQAPVYTLQMRCIRSSLPGFWSPWSPGLQLRPTMKA	soluble
MLSKNLLEALNDQMNHEYFAAHAYMAMAAYCDKESYEGFANFFIQQAKEERFHGQKIYNYINDRGAHAEFRAVSAPKIDFSSILETFKDSLSQEQEVTRRFYNLSEIARQDKDYATISFLNWFLDEQVEEESMFETHINYLTRIGDDSNALYLYEKELGARTFDEE	not soluble
MCMMSKVVSKMKSFLGFDEFEDEDEVMEEEEVMEEEESFAPVLSSKKNGKVVNIHTANTAKLMITKPLVYDDATEICTALKNRKIVVINTTSLELRTAQRLIDFVGGACYALCGELQEVEKGVFIVSPSNVEVSNELKSELSNKGMFNWASKLEHHHHHH	not soluble
MCIAIPGKMTAIVDENTATIDMGGICRDVNMALMGGAEESMIGKHFLVHVGYAISEISEEESEETMRLLKIMAGLEEIDSFENESQ	not soluble
GQNHHEVVKFMDVYQRSYCHPIETLVDIFQEYPDEIEYIFKPSCVPLMRCGGCCNDEGLECVPTEESNITMQIMRIKPHQGQHIGEMSFLQHNKCECRPKKD	soluble
MSDEDERHRKKMKRKTCTGDSKSPAKKKQKIKDKSEEKSHAVQKHDAIGGKADSTKTKVKLSGKDKDKGKISKSAHSTEWTENDKKSSSDGGKKQIKRNEKGQLLFKDHPEFTPNMTPKEVLQAGSFGGTYFRPIYSSITKKHYKDVWKELPEDWLDGLNIPEQVASSTYREKVNTYKVKCGGSLEMWESSGWIVPQDPYGWFQWYCRFYQGRRTEDDARQISRWSKCAGVKGRWRNNLITKVVRSGCAYDNVTVSPVVRQTLQHWGYKLTPEDYKQGAKRVKLK	not soluble
